In patent publication US20240343811A1 (SHANDONG SIMCERE BIOPHARMACUTICAL, published 2024):

Assays:
[1] = target: T1, human CD16a (158F), full length, on FlpinCHO cells (human, UniProt P08637 17-254); assay: FACS on FlpinCHO cells
Experimental: (§1) The required cells were scale-up cultured in a T-75 cell culture flask to the logarithmic growth phase. The medium was aspirated, and the cells were washed twice with a PBS buffer and then digested with trypsin. After the digestion was terminated, the cells were washed twice with the PBS buffer. The cells were counted, and then the cell pellet was resuspended with a [PBS+2% (w/w) BSA] blocking solution to 2×10⁶ cells/ml, and added to a 96-well FACS reaction plate at 50 μl/well. […] 50 μl/well of the antibody to be detected was added at different concentrations, and incubated on ice for 1 hour. […] The mixture was centrifuged and washed 5 times with PBS, and FACS (FACS Canto II, purchased from BD Company) was used for detection and result analysis. Data analysis was performed by software (CellQuest) to obtain the mean fluorescence intensity (MFI) of the cells. Then, software (GraphPad Prism8) was used for analysis, data fitting and EC50 value calculation.

[2] = target: T2, human CD16a (158V), full length, on cells (human, UniProt P08637 17-254); assay: FACS on FlpinCHO cells
T2 construct: also used as target for the bought Jurkat-NFAT reporter line stably expressing human CD16a (158V); also called FlpinCHO-human CD16a (158V); FlpinCHO-CD16a (158V)
Experimental: as §1

Human CD16a (158F)-his = target: T3, Human CD16a (158F)-his (human); assay: SPR (Biacore), antibody captured on Protein A
T3 construct: entry holds ECD, AVI tag, linker and His tag
Experimental: (§2) A sample buffer and a running buffer were HBS-EP+ (10 mM HEPES, 150 mM NaCl, 3 mM EDTA and 0.05% surfactant P20) (GE Healthcare; BR-1006-69). The flow-through cell was set to 25° C. The sample block was set to 16° C. Both were pretreated with the running buffer. In each cycle, an antibody to be detected was first captured with a Protein A chip, and then a single concentration of CD16 antigen protein was injected. The binding and dissociation processes of the antibody and the antigen protein were recorded, and finally Glycine pH 1.5 (GE Healthcare; BR-1003-54) was used to complete chip regeneration. Binding was measured by injecting different concentrations of recombinant human CD16-ECD his proteins in a solution for 240 s with a flow rate of 30 μL/min, wherein a total of 5 concentrations were prepared by using 200 nM as a starting concentration (see the detailed results for the actual concentration in the test) and performing a 1:1 dilution. The dissociation phase was monitored for up to 600 s and was triggered by switching from a sample solution to a running buffer. The surface was regenerated by washing with a 10 mM glycine solution (pH 1.5) for 30 s at a flow rate of 30 μL/min. Bulk refractive index difference was corrected by subtracting the response obtained from the goat anti-human Fc surface. Blank injection was also subtracted (=double reference). For calculation of apparent KD and other kinetic parameters, Langmuir 1:1 model was used.

Human CD16a (158V)-his = target: T4, Human CD16a (158V)-his (human); assay: SPR (Biacore), antibody captured on Protein A
T4 construct: entry holds ECD, AVI tag, linker and His tag
Experimental: as §2

[3] = target: T5, CD16 on primary human NK cells (human, UniProt P08637 17-254); assay: FACS on human NK cells
T5 construct: whole, on cells; also called resting NK cells
Experimental: as §1
The binding of an antibody to be detected to freshly prepared human NK cells (Milestone Biotechnologies, catalog number: PB56-N-Custom) was detected according to the method of Example 3.1.

[4] = target: T6, human CD16b (NA2), full length, on FlpinCHO cells (human, UniProt O75015 17-200); assay: FACS on FlpinCHO cells
T6 construct: also called FlpinCHO-human CD16b (NA2)
T6 chain: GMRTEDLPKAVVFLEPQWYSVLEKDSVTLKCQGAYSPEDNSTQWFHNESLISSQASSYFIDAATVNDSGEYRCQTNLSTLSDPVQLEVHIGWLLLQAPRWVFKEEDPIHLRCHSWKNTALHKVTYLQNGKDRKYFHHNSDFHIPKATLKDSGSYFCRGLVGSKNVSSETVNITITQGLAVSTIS
Experimental: as §1
(§3) The binding of an antibody to be detected to FlpinCHO-human CD16b cells was detected according to the method of Example 3.1.

[5] = target: T7, human CD16b (NA1), full length, on FlpinCHO cells (human, UniProt O75015 17-200); assay: FACS on FlpinCHO cells
T7 construct: also called FlpinCHO-human CD16b (NA1)
T7 chain: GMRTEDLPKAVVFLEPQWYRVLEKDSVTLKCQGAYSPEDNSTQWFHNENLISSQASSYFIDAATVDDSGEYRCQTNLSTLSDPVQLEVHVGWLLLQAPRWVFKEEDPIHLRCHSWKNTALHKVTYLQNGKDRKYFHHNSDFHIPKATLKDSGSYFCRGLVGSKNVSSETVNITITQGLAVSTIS
Experimental: as §1, §3

[6] = target: T2, human CD16a (158V), full length, on …; assay: cell-based or functional assay
[7] = target: T1, human CD16a (158F), full length, on …; assay: FACS, biotinylated antibody
Experimental: as §1, with “The” for “The required cells were scale-up cultured in a T-75 cell culture flask to the logarithmic growth phase. The”
(§4) An antibody to be detected was labeled in advance according to the instructions of a biotin labeling kit (EZ-Link™ NHS-PEG4 Biotinylation Kit, purchased from Thermofisher Scientific, catalog number: 21455). […] Detection was performed according to the method of Example 3.1, wherein the biotinylated antibody was detected with fluorescein APC-labeled Streptavidin (High Concentration) (purchased from Biolegend, catalog number: 405243).

[8] = target: T2, human CD16a (158V), full length, on …; assay: FACS, biotinylated antibody
Experimental: as §1, with “The” for “The required cells were scale-up cultured in a T-75 cell culture flask to the logarithmic growth phase. The”
as §4

[9] = target: T1, human CD16a (158F), full length, on …; assay: FACS, biotinylated antibody, +10 mg/mL human immunoglobulin
Experimental: as §1, with “The” for “The required cells were scale-up cultured in a T-75 cell culture flask to the logarithmic growth phase. The”
as §4

[10] = target: T2, human CD16a (158V), full length, on …; assay: as above
Experimental: as §1, with “The” for “The required cells were scale-up cultured in a T-75 cell culture flask to the logarithmic growth phase. The”
as §4

Binder	EC50 [1] [nM]	Maximum mean fluorescence intensity [1]	EC50 [2] [nM]	Maximum mean fluorescence intensity [2]	Kd (Human CD16a (158F)-his) [nM]	koff (Human CD16a (158F)-his) [s⁻¹]	kon (Human CD16a (158F)-his) [M⁻¹ s⁻¹]	Kd (Human CD16a (158V)-his) [nM]	koff (Human CD16a (158V)-his) [s⁻¹]	kon (Human CD16a (158V)-his) [M⁻¹ s⁻¹]	Maximum mean fluorescence intensity [4]	binding result [4]	EC50 [5] [nM]	Maximum mean fluorescence intensity [5]	EC50, activation activity for Jurkat cell [6] [nM]	Maximum fluorescence value [6]	EC50 [7] [nM]	Maximum mean fluorescence intensity [7]	EC50 [8] [nM]	Maximum mean fluorescence intensity [8]	other results
VHH07 VHH-Fc antibody (Fc fusion) EVQLVESGGGLVQAGGSLRLSCVASRSTLTTYAVRWYRQAPGKQREWVAFISVDGKTNYPDSVKGRFIVSRDNAKNTVYLQMNSLKPEDTADYICRAGGQYWGQGTQVTVSSEPKSSDKTHTCPPCPAPEFEGGPSVFLFPPKPKDTLMISRTPEVTCVVVAVSHEDPEVKFNWYVDGVEVHNAKTKPREEQYNSTYRVVSVLTVLHQDWLNGKEYKCKVSNKALPAPIEKTISKAKGQPREPQVYTLPPSREEMTKNQVSLTCLVKGFYPSDIAVEWESNGQPENNYKTTPPVLDSDGSFFLYSKLTVDKSRWQQGNVFSCSVMHEALHNHYTQKSLSLSPGK	0.25	5190	0.32	5970	67.2	0.00451	67200	22.7	0.00249	110000	113	no binding (tested: 100 nM)	0.35	52900	0.02	174000	0.24	4160	0.22	5970	EC50 [3]: 0.22 nM; Maximum mean fluorescence intensity [3]: 2330; EC50 [9]: 0.87 nM; Maximum mean fluorescence intensity [9]: 5520; EC50 [10]: 0.85 nM; Maximum mean fluorescence intensity [10]: 7900
VHH09 VHH-Fc antibody (Fc fusion) EVQVVESGGGLVQAGGSLRLSCVASTSTLTTYAVRWYRQAPGKQREWVAFISVDGNTNYPDSVKGRFIVSRDNAKNTVYLQMNSLKPEDTADYICRAGGQYWGQGTQVTVSSEPKSSDKTHTCPPCPAPEFEGGPSVFLFPPKPKDTLMISRTPEVTCVVVAVSHEDPEVKFNWYVDGVEVHNAKTKPREEQYNSTYRVVSVLTVLHQDWLNGKEYKCKVSNKALPAPIEKTISKAKGQPREPQVYTLPPSREEMTKNQVSLTCLVKGFYPSDIAVEWESNGQPENNYKTTPPVLDSDGSFFLYSKLTVDKSRWQQGNVFSCSVMHEALHNHYTQKSLSLSPGK	0.47	5550	0.69	6240	50.2	0.00309	61600	16.1	0.00178	110000	143	no binding (tested: 100 nM)	0.3	48200	0.03	159000	0.39	5140	0.64	7640	EC50 [3]: 0.76 nM; Maximum mean fluorescence intensity [3]: 2420; EC50 [9]: 1.35 nM; Maximum mean fluorescence intensity [9]: 6500; EC50 [10]: 1.74 nM; Maximum mean fluorescence intensity [10]: 9480
VHH08 VHH-Fc antibody (Fc fusion) EVQVVESGGGLVQAGGSLRLSCVASRSTLSTYAVRWYRQAPGNQREWVAFISVDGNTNYPDSVKGRFIVSRDNAKNTVYLQMNSLKPEDTADYICRAGGQYWGQGTQVTVSSEPKSSDKTHTCPPCPAPEFEGGPSVFLFPPKPKDTLMISRTPEVTCVVVAVSHEDPEVKFNWYVDGVEVHNAKTKPREEQYNSTYRVVSVLTVLHQDWLNGKEYKCKVSNKALPAPIEKTISKAKGQPREPQVYTLPPSREEMTKNQVSLTCLVKGFYPSDIAVEWESNGQPENNYKTTPPVLDSDGSFFLYSKLTVDKSRWQQGNVFSCSVMHEALHNHYTQKSLSLSPGK	0.56	4240	0.81	4710	80.5	0.00559	69500	22.1	0.00266	120000	149	no binding (tested: 100 nM)	0.18	38600	0.02	178000	0.85	3940	0.71	5660	EC50 [9]: 1.08 nM; Maximum mean fluorescence intensity [9]: 6060; EC50 [10]: 1.24 nM; Maximum mean fluorescence intensity [10]: 8840
